The supplement of paper PMC9170038

Tested on: MS2 coat protein
Test: apparent KD of MS2 coat protein; designed switch direction (-1 OFF switch, 1 ON switch): -1; higher = weaker reporter binding
Summary of the method: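 Designed RNA switches sharing common flanks were transcribed on Illumina chips by stalled E. coli RNA polymerase. They were titrated with SNAP-549-labelled MS2 coat protein, from 0.7 or 1.5 nM doubling to 3 µM, in Tris-HCl pH 7.5 buffer with KCl, MgCl2, BSA, DTT, tRNA and Tween-20. Titrations ran without input, with 200 uM small-molecule ligand, or with an oligonucleotide input. The apparent KD of each design is the median over its clusters, after curve-fitting of normalised cluster fluorescence.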

[1] = Eterna round: R95, input ligand: FMN 200 uM
[2] = Eterna round: R95, input ligand: microRNA oligo, concentration not stated
[3] = Eterna round: R95, input ligand: none
[4] = input ligand: microRNA oligo, concentration not stated

Row | Sequence | apparent KD of MS2 coat protein [2] [nM] | apparent KD of MS2 coat protein (input ligand: FMN 200 uM) [nM] | apparent KD of MS2 coat protein (input ligand: none) [nM] | also measured
1 | AGGAGUAGUAUCCGAUCCUACAUGAGGAUCACCCAUGUAGCUAGACGUGCACGCGAUGCUCGUCAGACUACCAGAUG [salish99_TOv1_r3_034] (puzzle: Sensor v3, turn-off variant 1) | 116 |  |  | apparent KD of MS2 coat protein [1]: 99.4 nM; apparent KD of MS2 coat protein [3]: 143 nM
2 | ACAUGAGGAUCACCCAUGUACACGUAAUGGCUCAUGUAGAGUGAGGAUAUGUGAGACGAACGAGCACAGAAGGCACAAGACAGG [Deportation 10 - Jieux - Exclusion NG 3] (Eterna round: R96, puzzle: Exclusion NG 3) |  | 38.3 | 34.8 | apparent KD of MS2 coat protein [4]: 23.8 nM
3 | AAUCUGUGAGGAUAUGGUGAGUAGUGCCUGAGCGCUGCUCACCAGAAGGCACAUGAGGAUCACCCAUGUAUGAA [Mat - Exclusion 4 - Mod of JL - D3] (puzzle: Exclusion 4) | 28 |  |  | 
4 | AAUUCACAUGAGGAUCACCCAUGUCAGGAUAUGGUUUCACGUUUUUCUUUGCUUGAGGCCAGAAGGGACAGCUA (puzzle: Exclusion 1) | 54.2 |  |  | 
5 | GAGAGGUCAGGAUAUACGGAGAGAGGGAGUUGGUGAGGGUAACAUGAGGAUCACCCAUGUAGAAGGGACUAAGG [JR_Exclu2_Sub077] (puzzle: Exclusion 2) | 22.8 |  |  | 
6 | GACAAGGGAGGAUAUGCACAAGGGAUAUCUGACAUGCCGAUACAUGAGGAUCACCCAUGUAGAAGGCCCGAAUA [Oneser] (puzzle: Exclusion 2) | 12.5 |  |  | 
7 | CGAUGCUCGUGUCCACAUGAGGAUCACCCAUGUCGAGUUAGCGAGGAUAUCGGUAACACAUAGUACGAGAAGGCGCGAACCUGA [Ex NG3 #27] (Eterna round: R96, puzzle: Exclusion NG 3) |  | 52.5 | 17.3 | apparent KD of MS2 coat protein [4]: 14.6 nM
8 | UCCUUACUGGUCAGGAUAUACAUUCGCGAGUGGGUGUAGAAGGGACAUGAGGAUCACCCAUGUACGUUACAUCC [alecazam54f] (Eterna round: R97, puzzle: Brourd's mod of Exclusion 4) |  | 18.3 | 20.5 | 
9 | AAAUAGGGAGGAUAUCCAAUAUAUGACAUGAGGAUCACCCAUGUUUCCACUCGUACCUCCGGAGAAGGCCCAUAAU [Ex5 #2] (Eterna round: R97, puzzle: Exclusion 5) |  | 25.8 | 23.9 | 
10 | AGAAGUAGAAACCGAUCCUACAUGAGGAUCACCCAUGUAGCAAGACGUGCACGCGAAGCUCGUCAGACUACCAGAAG [salish99_TOv1_r3_001] (puzzle: Sensor v3, turn-off variant 1) | 821 |  |  | apparent KD of MS2 coat protein [1]: 379 nM; apparent KD of MS2 coat protein [3]: 685 nM
11 | CUCCUGCGAGGAUAUACAUAGUGACGUCUGUUUAAUCUUAAACAUGAGGAUCACCCAUGUAGAAGGUGCGUCAC [EX2 #82] (Eterna round: R97, puzzle: Exclusion 2) |  | 13.1 | 13.2 | 
12 | CUCAUACAUGAGGAUCACCCAUGUGAGGAUAUACUCCGCACCACACAGGUCGGGUAGCGUAGAAGGUAUUGGGU [Eternabot (L1) Solution 85] (Eterna round: R97, puzzle: Exclusion 1) |  | 96.3 | 168 | 
13 | CUUUGACAUGAGGAUCACCCAUGUGAGGAUAUGAUGCGAUCGUCGAAAGACGAUAGCAUCAGAAGGCACAUAUG [Fiskers Ex 1 - 7] (puzzle: Exclusion 1) | 92.6 |  |  | 
14 | CGGAUACAUGAGGAUCACCCAUGUGAGGAUAUCGUACGUUCGUCGAAAGACGAUCGUACGAGAAGGCAUGACCG [Eli x1 4.36] (Eterna round: R97, puzzle: Exclusion 1) |  | 64 | 113 | 
15 | UAUCAACAUGAGGAUCACCCAUGUGAGGAUAUCAAAACCAGAGCGGAUCUCUGGCCCAUGAGAAGGUACAUGGU [ElNandoxlusion 6 - Jieux - Exclusion 1] (Eterna round: R97, puzzle: Exclusion 1) |  | 111 | 22.3 | 
16 | ACCAUGGUUGAAGCUAACAUGAGGAUCACCCAUGUAAGCUGCUAGGAUAUGCAGAGGCCCAGAAAGCAGAAGGAGCAGUACUGC [Diatzagequ] (Eterna round: R96, puzzle: Exclusion NG 3) |  | 14.2 | 14.9 | apparent KD of MS2 coat protein [4]: 10.6 nM
17 | UAUUAGCAAGCGAGAUCCCACAUGAGGAUCACCCAUGUGCUCGUCUUAUAAAAGACUGUGACAAAAGUCACGGUCAC [Sensor 3, v1 - 91 v5] (Eterna round: R97, puzzle: Sensor, turn-off variant 1) |  | 15.9 | 15.1 | 
18 | UAAUAAAGUGUGAGGAUAUGCUGGUCCUUAGAUCAGCAGAAGGCACAUGAGGAUCACCCAUGUAAUAUAUAAAU [Mat - Exclusion 4 - JL Mod - D56] (Eterna round: R96, puzzle: Brourd's mod of Exclusion 4) |  |  |  | apparent KD of MS2 coat protein [4]: 29 nM

Row | Sequence | apparent KD of MS2 coat protein [2] [nM] | apparent KD of MS2 coat protein (input ligand: FMN 200 uM) [nM] | apparent KD of MS2 coat protein (input ligand: none) [nM] | also measured
19 | UGAGCUUCAGGAUAUACGUGACGACCGUGAGGUCGAAGGUUACAUGAGGAUCACCCAUGUAGAAGGGAAGUUCU [Mat - Exclusion 2 - JL Mod - D27] (Eterna round: R97, puzzle: Exclusion 2) |  | 70.8 | 27.5 | 
20 | GUUUCACAUGAGGAUCACCCAUGUGAGGAUAUGCAUUUGUUAACCGUAGUUAAUAGAUGCAGAAGGCGCGUGAU [JRxlusion 5 - Jieux - Exclusion 1] (Eterna round: R97, puzzle: Exclusion 1) |  | 69.8 | 65 | 
21 | UAUAAAAUAUAGGAUAUCGAAUAUAUUAUUUAACGAGAAGGAUGAACAUGAGGAUCACCCAUGUGGUAUCAUGG [Mat - Exclusion 6 - JL Mod - D37] (puzzle: Exclusion 6) | 255 |  |  | apparent KD of MS2 coat protein [1]: 199 nM; apparent KD of MS2 coat protein [3]: 415 nM
22 | GUGUACAGAGGAUAUGCACGAGUAGUUACGAAAGUAACUGCACAUGAGGAUCACCCAUGUAGAAGGCUGUACAC [Dot plot directed v4] (puzzle: Exclusion 2) | 15.4 |  |  | 
23 | AUAAUGUCAGGAUAUCGAGACUACUGCCUCGGCAGUAGUCUCGAGAAGGGACAUGAGGAUCACCCAUGUGAUCA [E4/1-A2] (Eterna round: R97, puzzle: Exclusion 4) |  | 831 | 45.2 | 
24 | GCAGACGUAGUGAGGAUAUGCUCUACCUCGGUAGAGCAGAAGGCACAUGAGGAUCACCCAUGUGGUUCCUCAUC [Omei Ex4B B19] (Eterna round: R97, puzzle: Brourd's mod of Exclusion 4) |  | 54 | 15.6 | 
25 | GAUUAUGCGAGCUUUAGGGACAUGAGGAUCACCCAUGUUCGUCUUAUUGGUCUAAGUGCACUGACAUACCUAAAUCU [JMF 84] (puzzle: Sensor v3, turn-off variant 1) | 31.5 |  |  | apparent KD of MS2 coat protein [1]: 20.2 nM; apparent KD of MS2 coat protein [3]: 19.6 nM
26 | CAUCUGUGAGGAUAUGGUGAGUAGUGCCUGAGCGCUGCUCACCAGAAGGCACAUGAGGAUCACCCAUGUAUGAC [JL-ex4-2.01 denovo] (Eterna round: R96, puzzle: Exclusion 4) |  | 319 | 70 | apparent KD of MS2 coat protein [4]: 46.3 nM
27 | UAAAUGUGAGGAUAUCAGGUGUGCUAGCGUACUGGUACAUCUGAGAAGGCACAUGAGGAUCACCCAUGUUCCUU [Mat - Exclusion 4 - Mod of JL - D49] (puzzle: Exclusion 4) | 16.7 |  |  | 
28 | CAGUACUGAGGAUAUACAUGAGGAUCACCCAUGUGUUCCAGCGAGGAAACUAGCAAAAGUAGAAGGCAGUACUG [salish99_ex3_r3_077] (puzzle: Exclusion 3) | 18.4 |  |  | apparent KD of MS2 coat protein [1]: 199 nM; apparent KD of MS2 coat protein [3]: 17.5 nM
29 | UAUAUAUAGUAAGGAUAUGUAUUAAUUUUUUAAACAGAAGGUACUGACAUGAGGAUCACCCAUGUUUUAGUGUGGGCAUGUAGA [JMF's solution 86] (Eterna round: R96, puzzle: Exclusion NG 1) |  |  |  | apparent KD of MS2 coat protein [4]: 65.7 nM
30 | CUGAGGUAGCGGUCCUAUGACAUGAGGAUCACCCAUGUACCUUGCUUUGAGCUAAUUGCUCGUCUUAUGAUUCUCGG [Mat - Sensor v3 - turn-off var 1 - JL Mod - D45] (puzzle: Sensor v3, turn-off variant 1) | 457 |  |  | apparent KD of MS2 coat protein [1]: 500 nM; apparent KD of MS2 coat protein [3]: 479 nM
31 | GCAGUGCGAGGAUAUACAUGAGGAUCACCCAUGUGAGAAUAAGAAGUGAGGAAGAAAAGUAGAAGGCGCGUUGG [Mat - Exclusion 3 - Mod of Salish D66] (puzzle: Exclusion 3) | 36.4 |  |  | apparent KD of MS2 coat protein [1]: 77.5 nM; apparent KD of MS2 coat protein [3]: 59.6 nM
32 | AGGAAUCUAGGAUAUAUAUGAAACGAUCCAGAUUCAAGGAAACAUGAGGAUCACCCAUGUAGAAGGAGAGAAAA [EX2 A.17] (Eterna round: R97, puzzle: Exclusion 2) |  | 23.4 | 21.5 | 
33 | GUUAUUAAUGUAGGAUAUGCAAGGCGAACCUAAGCAGAAGGACAUGAGGAUCACCCAUGUAUUGCGGUCUGCGUUCAGAUCGCU [salish99_ExNG1_r4_012] (Eterna round: R96, puzzle: Exclusion NG 1) |  | 39.9 | 19.4 | apparent KD of MS2 coat protein [4]: 15.8 nM
34 | CAUACACAUGAGGAUCACCCAUGUGAGGAUAUGCGUACGUUGUCCGUAGGCGACGUGCGCAGAAGGCGCGAGGU [JL-ex1-3.16 Eli mod] (puzzle: Exclusion 1) | 28.4 |  |  | 
35 | GUGUAGAUAGGAUAUGCAUAGAGCUUACGAAAGUAGGCUCUACAUGAGGAUCACCCAUGUAGAAGGGUCUACAC [Dot plot directed A v15] (puzzle: Exclusion 2) | 25 |  |  | 
